The text below walks through data of patent US20190276509A1 (Memorial Sloan Kettering, published 2019).

No end group written: not given here.

As usually defined, the Kd is the free concentration of one partner at which half of the binding sites on the other are occupied at equilibrium, for simple one-to-one binding. As a reminder, the EC50 (read off the curve) is the concentration giving half of the maximal effect.

For experiment [1], the target named is purified recombinant CBP KIX domain (Homo sapiens (Human)) (UniProt Q92793). Briefly: microscale thermophoresis (MST), FITC-peptide fixed, purified KIX titrated, n=3. (In MST a laser heats a spot of the sample, and binding alters the fluorescence response.)
Experiment [2] has the same target. In words: microscale thermophoresis (MST), FITC-peptide at fixed concentration, purified KIX titrated; concentration read is that of KIX.
The target in experiment [3] is T1, purified recombinant CBP KIX domain (Homo sapiens (Human), UniProt Q92793 587-666).
T1 construct: Linker residues may remain after the thrombin cut; also called purified KIX
Briefly: microscale thermophoresis (MST), FITC-peptide fixed, purified KIX titrated, n=3.

Experiment [4] addresses T1, purified recombinant CBP KIX domain. In words: microscale thermophoresis (MST), FITC-peptide at fixed concentration, purified KIX titrated; concentration read is that of KIX.
The target is the same in experiment [5]. In words: microscale thermophoresis (MST), FITC-peptide at fixed concentration, purified KIX titrated.

T1 sequence (Q92793 587-666 limits assumed): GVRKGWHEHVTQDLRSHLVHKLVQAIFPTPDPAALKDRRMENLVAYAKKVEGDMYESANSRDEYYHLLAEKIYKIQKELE
purified recombinant CBP KIX domain (Homo sapiens (Human)), sequence (Q92793 587-666 limits assumed): as above

Turning to “FITC-MYBMIM (FITC-conjugated D-amino acid retro-inverso peptide, D-aa)”, in experiment [1], the Kd worked out at 25.4 µM. For the same molecule, in experiment [2], the concentration giving a half-maximal response (EC50 (read off the curve)) worked out at 30 µM.

B1: FITC-MYB (FITC-conjugated L-amino acid peptide, L-aa) (peptide)
peptide: YGRKKRRQRRRGGKRIKELELLLMSTENELK-NH2
modifications: not fully specified (N-terminus); also: conjugated to FITC, site not given here, N-terminal acetyl
notes: It is uncertain whether the labelled peptide carried the TAT part; also called L-aa peptide
As to B1, in experiment [3], the Kd was 5.25 µM. Besides, the “EC50 (read off the curve)” value in experiment [4] was roughly 5 µM.

B2: FITC-TAT (fluorescein-conjugated TAT peptide, FITC-AHA-YGRKKRRQRRR-NH2) (peptide)
peptide: YGRKKRRQRRR
modifications: not fully specified; N-terminal FITC-aminohexanoic acid (FITC-AHA); C-terminal amide; L-amino acids
As for B2, the binding result in experiment [5] is “no binding (tested: about 50 uM KIX)”.
